Measured values published in patent US20070021593A1.
Numbering of substitutions follows the chain as printed. In names and notes the source's numbering stands. Several values for one entry are separate records, joined by “and”; a condition that tells them apart may be missing. Identical values can stand only once.

Columns and labels:
[1] = biological target: CXCL8 receptors on bovine peripheral blood neutrophils; assay: biotCXCL8 binding inhibition on bovine neutrophils; 10 ng/ml unlabeled CXCL8 2 h at 4 C, wash, then 1 ug/ml biotCXCL8; ELISA read-out
[2] = biological target: CXCL8 receptors on bovine peripheral blood neutrophils; assay: competition with 20 pM 125I-CXCL8 on 10^6 bovine neutrophils, 45 min on ice
[3] = biological target: CXCL8 receptors on bovine peripheral blood neutrophils; assay: biotCXCL8 (1000 ng/ml) on medium-treated bovine neutrophils; alkaline phosphatase-streptavidin and ABTS
[4] = biological target: CXCL8 receptors on bovine peripheral blood neutrophils; assay: preliminary radioligand binding on bovine neutrophils
[5] = biological target: CXCL8 receptors on bovine peripheral blood neutrophils; assay: biotCXCL8 binding inhibition on bovine neutrophils; 10 ng/ml analogue 2 h at 4 C, wash, then 1 ug/ml biotCXCL8; ELISA read-out
[6] = biological target: CXCL8 receptors on bovine peripheral blood neutrophils; assay: cell-based or functional assay
[7] = biological target: CXCL8 receptors on bovine peripheral blood neutrophils; assay: competition with 20 pM 125I-CXCL8 on bovine neutrophils; reference wildtype CXCL8

For “CXCL8 (wild type, unlabeled) (from UniProt P79255 23-101) (ligand)”, which percent of biotCXCL8 binding inhibited [1] is on record?
Its percent of biotCXCL8 binding inhibited is 30%.

What about the IC50 [2] of the same molecule?
The IC50 was 120 pM.

Which OD405 [3] does the source give for “biotinylated CXCL8 (from UniProt P79255 23-101) (ligand)” here?
Its OD405 is 0.5 to 0.6 OD405.

“125I-CXCL8 (from UniProt P79255 23-101) (ligand)” was tested. Which concentration that just saturated the high affinity receptors [4] did it give?
The concentration that just saturated the high affinity receptors was 20 pM.

B1: bovine CXCL8(3-74)K11R/G31P (ligand)
chain: TELRCQCIRTHSTPFHPKFIKELRVIESPPHCENSEIIVKLTNGNEVCLNPKEKWVQKVVQVFVKRAEKQDP
Which percent of subsequent biotCXCL8 binding blocked [5] does the source give for B1 here?
The percent of subsequent biotCXCL8 binding blocked was 95%.

And the IC50, inhibition of bovine neutrophil chemotaxis to 1 ug/ml (129 nM) CXCL8 [6]?
Its IC50, inhibition of bovine neutrophil chemotaxis to 1 ug/ml (129 nM) CXCL8 is 110 pM.

And the concentration for complete blocking of bovine neutrophil chemotaxis to 1 ug/ml CXCL8 [6]?
The concentration for complete blocking of bovine neutrophil chemotaxis to 1 ug/ml CXCL8 was 10 nM.

And the concentration for complete inhibition of bovine neutrophil chemotaxis to human CXCL5, CXCL1 or CXCL8 [6]?
The concentration for complete inhibition of bovine neutrophil chemotaxis to human CXCL5, CXCL1 or CXCL8 was 3 nM and 20 nM.

And the concentration reducing by 50% the bovine neutrophil chemotactic response to 10 ng/ml human CXCL8 [6]?
The concentration reducing by 50% the bovine neutrophil chemotactic response to 10 ng/ml human CXCL8 was 0.04 nM.

And the concentration reducing to 50% the bovine neutrophil chemotactic response to 1 ng/ml human CXCL1 [6]?
Its concentration reducing to 50% the bovine neutrophil chemotactic response to 1 ng/ml human CXCL1 is 0.26 nM.

And the concentration reducing to 50% the bovine neutrophil chemotactic response to 1 ng/ml human CXCL5 [6]?
The concentration reducing to 50% the bovine neutrophil chemotactic response to 1 ng/ml human CXCL5 was 0.06 nM.

And the reduction of the chemotactic response of bovine neutrophils to 1 ug/ml (129 nM) CXCL8 by 12.9 pM analogue [6]?
Its reduction of the chemotactic response of bovine neutrophils to 1 ug/ml (129 nM) CXCL8 by 12.9 pM analogue is 33%.

And the fold more effective than wildtype CXCL8 in inhibiting 125I-CXCL8 binding [7]?
The fold more effective than wildtype CXCL8 in inhibiting 125I-CXCL8 binding was 100 fold.

And the IC50 [2]?
Its IC50 is 4 pM.

B2: bovine CXCL8(3-74)K11R/P32G (ligand)
chain: B1 chain with P29G, P30G
B2 was tested. Which percent of CXCL8 binding blocked [5] did it give?
The percent of CXCL8 binding blocked was 48%.
